Target: T1, GST-E1 (HPV 11 E1 fused to GST) (human papillomavirus type 11, UniProt P04014 1-649)
T1 sequence: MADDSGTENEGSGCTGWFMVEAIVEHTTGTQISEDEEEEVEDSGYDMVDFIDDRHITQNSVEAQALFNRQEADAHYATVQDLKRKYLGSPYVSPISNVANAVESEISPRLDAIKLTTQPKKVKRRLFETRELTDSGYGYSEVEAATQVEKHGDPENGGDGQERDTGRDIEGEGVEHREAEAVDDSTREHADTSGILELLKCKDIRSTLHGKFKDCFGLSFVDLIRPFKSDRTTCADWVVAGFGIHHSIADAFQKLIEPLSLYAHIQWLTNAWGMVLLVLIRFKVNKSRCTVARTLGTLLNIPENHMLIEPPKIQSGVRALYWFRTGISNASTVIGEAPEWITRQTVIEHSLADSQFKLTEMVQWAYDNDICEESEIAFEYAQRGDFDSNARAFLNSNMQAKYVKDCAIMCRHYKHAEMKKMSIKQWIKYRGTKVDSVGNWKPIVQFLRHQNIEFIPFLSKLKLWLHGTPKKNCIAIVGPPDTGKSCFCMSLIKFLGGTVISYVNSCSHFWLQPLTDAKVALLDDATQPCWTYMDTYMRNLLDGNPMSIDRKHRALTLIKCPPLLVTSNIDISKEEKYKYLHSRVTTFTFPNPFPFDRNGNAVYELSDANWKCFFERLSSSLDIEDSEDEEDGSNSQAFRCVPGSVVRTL
Assay: far-Western, overlay or dot blot

B1: p50 subunit of pol δ (natural protein)
chain: not shown
binding result: binds

Reference: PMC5758917 (Nucleic Acids Research, 2017)
